From publication PMC8325345 come the findings set out here.

One data set deals with T1, ecHrpA FL (Escherichia coli DH5-alpha, UniProt P43329 1-1300).
T1 sequence: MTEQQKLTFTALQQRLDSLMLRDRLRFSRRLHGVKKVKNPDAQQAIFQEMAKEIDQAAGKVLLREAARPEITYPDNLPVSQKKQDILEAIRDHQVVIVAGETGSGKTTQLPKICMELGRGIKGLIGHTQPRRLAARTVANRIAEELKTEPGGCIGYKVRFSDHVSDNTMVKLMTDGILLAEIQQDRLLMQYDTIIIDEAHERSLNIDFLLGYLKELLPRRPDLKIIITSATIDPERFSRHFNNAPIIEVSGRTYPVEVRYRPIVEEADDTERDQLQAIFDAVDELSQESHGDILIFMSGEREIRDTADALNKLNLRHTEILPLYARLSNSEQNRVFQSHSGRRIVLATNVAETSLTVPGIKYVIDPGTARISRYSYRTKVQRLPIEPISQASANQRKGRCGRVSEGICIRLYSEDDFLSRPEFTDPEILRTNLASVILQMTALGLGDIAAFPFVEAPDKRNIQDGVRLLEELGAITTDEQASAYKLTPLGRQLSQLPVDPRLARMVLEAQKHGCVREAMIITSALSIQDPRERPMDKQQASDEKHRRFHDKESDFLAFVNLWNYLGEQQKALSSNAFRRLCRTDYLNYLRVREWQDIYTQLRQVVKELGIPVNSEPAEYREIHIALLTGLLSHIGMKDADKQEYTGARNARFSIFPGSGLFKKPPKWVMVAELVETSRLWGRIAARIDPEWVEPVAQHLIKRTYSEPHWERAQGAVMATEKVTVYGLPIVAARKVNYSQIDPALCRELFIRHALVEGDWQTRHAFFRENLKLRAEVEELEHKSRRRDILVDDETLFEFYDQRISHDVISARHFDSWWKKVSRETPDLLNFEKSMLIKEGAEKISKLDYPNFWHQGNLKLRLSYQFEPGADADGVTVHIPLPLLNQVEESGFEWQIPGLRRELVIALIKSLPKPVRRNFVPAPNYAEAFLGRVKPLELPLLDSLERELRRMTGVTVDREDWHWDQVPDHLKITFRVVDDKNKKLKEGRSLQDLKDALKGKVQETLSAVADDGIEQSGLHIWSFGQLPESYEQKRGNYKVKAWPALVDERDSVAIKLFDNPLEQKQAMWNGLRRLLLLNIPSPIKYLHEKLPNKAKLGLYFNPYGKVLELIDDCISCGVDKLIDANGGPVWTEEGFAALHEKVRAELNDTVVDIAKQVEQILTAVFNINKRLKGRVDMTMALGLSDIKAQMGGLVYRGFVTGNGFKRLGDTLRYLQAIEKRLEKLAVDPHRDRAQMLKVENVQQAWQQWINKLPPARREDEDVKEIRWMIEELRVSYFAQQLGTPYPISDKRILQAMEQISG
Nature of the data set: fluorescence anisotropy. Background: Fluorescence polarisation rises when a labelled molecule tumbles more slowly, as on binding a larger partner.

In the next data set the target is T2, ecHrpA1-783,E675A (Escherichia coli DH5-alpha, UniProt P43329 1-783, E675A).
T2 sequence: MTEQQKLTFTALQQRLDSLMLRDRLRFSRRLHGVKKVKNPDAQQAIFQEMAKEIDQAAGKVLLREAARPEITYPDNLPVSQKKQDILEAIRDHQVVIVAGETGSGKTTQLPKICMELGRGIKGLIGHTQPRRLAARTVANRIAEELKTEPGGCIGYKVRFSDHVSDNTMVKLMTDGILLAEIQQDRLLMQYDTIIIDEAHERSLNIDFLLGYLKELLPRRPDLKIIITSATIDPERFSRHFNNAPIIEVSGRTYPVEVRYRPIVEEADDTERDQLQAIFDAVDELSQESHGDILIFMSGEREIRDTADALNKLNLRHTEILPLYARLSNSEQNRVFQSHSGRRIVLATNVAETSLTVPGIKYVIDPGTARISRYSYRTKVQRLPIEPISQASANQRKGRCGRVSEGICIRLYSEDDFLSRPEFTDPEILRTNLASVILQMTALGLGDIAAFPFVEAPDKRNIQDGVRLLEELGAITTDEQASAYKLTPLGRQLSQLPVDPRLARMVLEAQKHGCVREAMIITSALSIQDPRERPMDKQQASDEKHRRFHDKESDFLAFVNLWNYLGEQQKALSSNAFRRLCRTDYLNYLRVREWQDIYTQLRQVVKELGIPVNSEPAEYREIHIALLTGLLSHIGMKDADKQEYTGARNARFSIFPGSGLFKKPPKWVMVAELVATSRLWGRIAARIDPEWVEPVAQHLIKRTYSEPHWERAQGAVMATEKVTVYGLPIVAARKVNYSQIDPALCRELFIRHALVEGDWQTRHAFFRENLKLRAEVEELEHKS
The experiment in a line: fluorescence anisotropy.

B1: FAM-RNABlunt (dsRNA)
RNA 1: GCUGCCAGACCAAAU
RNA 2: AUUUGGUCUGGCAGC
Regarding B1, in the data set with ecHrpA FL, the binding result is “no binding”.

B2: FAM-DNASS16 (ssDNA)
DNA: TATAAACCAGACCGTC
In the case of B2, the binding result in the data set with ecHrpA FL is reported as “no binding”.

B3: FAM-RNASS15 (ssRNA)
RNA: GCUGCCAGACCAAAU
Take B3: in the data set with ecHrpA1-783,E675A, the binding signal is ~2.2 fold lower RNA binding than ecHrpA1-783.
